Results reported in article PMC12613146.
“And” between values parts separate entries of the source, which are not always exact repeats. Identical values can stand only once.

Biological target: ectodomain of the epidermal growth factor receptor, EGFR25-645 (human)
Experiment: BLI; biotinylated ligand (50 nM, 5 min) on streptavidin sensors, DDM proteomicelles of the membrane protein in the wells (six two-fold dilutions); 20 mM Tris-HCl, 300 mM KCl, 0.2% (w/v) DDM, 1 mg/ml BSA, pH 7.5; 22 °C; global fits, KD = koff/kon

Sequence of TGF-α(GGS)2tFhuA (chain): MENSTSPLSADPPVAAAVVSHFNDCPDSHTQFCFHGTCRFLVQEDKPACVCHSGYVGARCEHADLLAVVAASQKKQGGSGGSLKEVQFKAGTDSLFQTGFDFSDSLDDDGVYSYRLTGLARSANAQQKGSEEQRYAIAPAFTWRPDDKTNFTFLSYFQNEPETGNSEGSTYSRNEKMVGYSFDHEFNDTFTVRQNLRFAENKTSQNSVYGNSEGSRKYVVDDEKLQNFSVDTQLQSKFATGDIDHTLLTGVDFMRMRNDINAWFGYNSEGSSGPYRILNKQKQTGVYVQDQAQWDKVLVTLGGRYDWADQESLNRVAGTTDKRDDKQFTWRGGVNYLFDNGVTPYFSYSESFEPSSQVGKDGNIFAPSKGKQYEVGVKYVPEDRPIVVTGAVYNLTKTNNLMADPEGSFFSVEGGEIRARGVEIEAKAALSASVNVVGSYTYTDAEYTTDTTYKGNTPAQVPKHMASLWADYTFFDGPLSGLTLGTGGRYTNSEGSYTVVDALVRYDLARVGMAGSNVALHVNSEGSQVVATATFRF

With TGF-α(GGS)2tFhuA the kon was 2600 M⁻¹ s⁻¹ and 2400 M⁻¹ s⁻¹ and 2500 M⁻¹ s⁻¹.
